Measurements taken from the supplement of paper PMC7877785.
± gives the uncertainty stated by the source.

Experiment: self-splicing fitness, log relative to wild type (ln ratio); higher = more splicing; Tetrahymena group I intron in knt gene, E. coli kanamycin selection, DiMSum; sequences stand for … in CUCUCU…GGAGGGAAAAGUUAUCAGGCAUGCACCUGGUAGCUAGUCUUUAAACCAAUAGAUUGCAUCGGUUUAAAAGGCAAGACCGUCAAAUUGCGGGAAAGGGGUCAACAGCCGUUCAGUACCAAGUCUCAGGGGAAACUUUGAGAUGGCCUUGCAAAGGGUAUGGUAAUAAGCUGACGGACAUGGUCCUAACCACGCAGCCAAGUCCUAAGUCAACAGAUCUUCUGUUGAUAUGGAUGCAGUUCACAGACUAAAUGUCGGUCGGGGAAGAUGUAUUCUUCUCAUAAGAUAUAGUCGGACCUCUCCUUAAUGGGAGCUAGCGGAUGAAGUGAUGCAACACUGGAGCCGCUGGGAACUAAUUUGUAUGCGAAAGUAUAUUGAUUAGUUUUGGAGUACUCGUGGUCG
Method in brief: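 Fitness was computed with DiMSum as the error-weighted combination of replicate fold changes, kanamycin versus none, each normalised to wild type. The library randomised all eight intron nucleotides of the P1ex region, with the intron placed in the knt kanamycin-resistance gene on pET-22b(+) in E. coli BL21(DE3). Six replicate transformations were grown overnight at 37°C or 30°C on LB agar with or without 25 μg/mL kanamycin, plus 100 μg/mL carbenicillin, 50 μM IPTG and 0.2% rhamnose. Pooled colonies were amplicon-sequenced on an Illumina HiSeq 2500.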

Sequence	self-splicing fitness (ln) (30 °C)	self-splicing fitness (ln) (37 °C)
AAGAAGCAAUAUUACGGUUA	-0.783 ± 0.15	-0.983 ± 0.12
AAGAAGCAAUAUUACGUAGA	-2.64 ± 0.13	-1.01 ± 0.11
AAGAAGCAAUAUUACGUCUG	-0.345 ± 0.054	0.0995 ± 0.071
AAGAAGCAAUAUUACGUGUG	-2.3 ± 0.09	-0.663 ± 0.081
AAGCAGCAAUAUUACGAAGU	-3.3 ± 0.13	-1.34 ± 0.13
AAGCAGCAAUAUUACGAAUU	-0.851 ± 0.069	0.12 ± 0.099
AAGCAGCAAUAUUACGAGCC	-3.37 ± 0.34	-1.2 ± 0.24
AAGCAGCAAUAUUACGAGGC	-1.38 ± 0.13	-2.17 ± 0.22
AAGCAGCAAUAUUACGAGGU	-3.55 ± 0.16	-2.65 ± 0.19
AAGCAGCAAUAUUACGAUGG	-2.99 ± 0.13	-1.84 ± 0.14
AAGCAGCAAUAUUACGAUGU	-1.3 ± 0.06	-0.566 ± 0.078
AAGCAGCAAUAUUACGCACG	-1.15 ± 0.079	-0.574 ± 0.095
AAGCAGCAAUAUUACGCAUC	-2.72 ± 0.18	
AAGCAGCAAUAUUACGCCCU	-0.309 ± 0.14	0.0798 ± 0.18
AAGCAGCAAUAUUACGCCGG	-1.52 ± 0.11	-0.994 ± 0.17
AAGCAGCAAUAUUACGCCUC		-1.22 ± 0.4
AAGCAGCAAUAUUACGCCUU	-2.42 ± 0.16	-1.35 ± 0.12
AAGCAGCAAUAUUACGCGCG	-1.16 ± 0.082	-0.105 ± 0.1
AAGCAGCAAUAUUACGGAAC	-3.6 ± 0.3	
AAGCAGCAAUAUUACGGAAU	-3.08 ± 0.13	-1.66 ± 0.11
AAGCAGCAAUAUUACGGACA	-1.69 ± 0.16	0.0141 ± 0.11
AAGCAGCAAUAUUACGGAGA	-2.7 ± 0.13	-1.44 ± 0.13
AAGCAGCAAUAUUACGGAGU	-3.69 ± 0.13	-1.15 ± 0.1
AAGCAGCAAUAUUACGGCCC	0.22 ± 0.14	0.271 ± 0.17
AAGCAGCAAUAUUACGGCGA	-0.328 ± 0.075	0.355 ± 0.094
AAGCAGCAAUAUUACGGGAU	-3.63 ± 0.14	-1.92 ± 0.1
AAGCAGCAAUAUUACGGUGU	-1.85 ± 0.09	-0.979 ± 0.12

Sequence	self-splicing fitness (ln) (30 °C)	self-splicing fitness (ln) (37 °C)
AAGCAGCAAUAUUACGGUUA	-0.142 ± 0.072	0.0491 ± 0.087
AAGCAGCAAUAUUACGUAAA	-1.84 ± 0.087	-0.803 ± 0.11
AAGCAGCAAUAUUACGUACC	-1.17 ± 0.19	-0.569 ± 0.22
AAGCAGCAAUAUUACGUCCA	-0.662 ± 0.089	-0.156 ± 0.1
AAGCAGCAAUAUUACGUCGG	-2.24 ± 0.1	-1.7 ± 0.17
AAGCAGCAAUAUUACGUCUU	-1.66 ± 0.075	-1.05 ± 0.071
AAGCAGCAAUAUUACGUGCG	-0.989 ± 0.073	-0.0742 ± 0.092
AAGCAGCAAUAUUACGUGGG	-3.54 ± 0.13	-1.36 ± 0.084
AAGCAGCAAUAUUACGUGUC	-2.94 ± 0.15	-2.01 ± 0.15
AAGCAGCAAUAUUACGUUAU	-2.38 ± 0.089	-1.21 ± 0.1
AAGCAGCAAUAUUACGUUGC	-2.46 ± 0.099	-3.24 ± 0.21
AAGCAGCAAUAUUACGUUUG	-3.04 ± 0.13	-1.73 ± 0.14
AAGCAGCAAUAUUACGUUUU	-3.3 ± 0.14	-2.52 ± 0.14
AAGGAGCAAUAUUACGAAGG	-3.3 ± 0.28	-2.99 ± 0.41
AAGGAGCAAUAUUACGAAGU	-3.53 ± 0.43	-2.57 ± 0.36
AAGGAGCAAUAUUACGACAA	-2.38 ± 0.2	-2.16 ± 0.33
AAGGAGCAAUAUUACGACAU	-2.282 ± 0.02	-1.6 ± 0.037
AAGGAGCAAUAUUACGACCU	-0.0623 ± 0.16	-0.475 ± 0.2
AAGGAGCAAUAUUACGAGAA	-3.76 ± 0.42	-2.22 ± 0.24
AAGGAGCAAUAUUACGAGAC	-2.03 ± 0.44	
AAGGAGCAAUAUUACGAGUG		-2.2 ± 0.4
AAGGAGCAAUAUUACGAGUU	-3.53 ± 0.17	-1.65 ± 0.12
AAGGAGCAAUAUUACGAUAC	-3.49 ± 0.39	-3.25 ± 0.37
AAGGAGCAAUAUUACGAUAG	-4.31 ± 0.46	-2.87 ± 0.43
AAGGAGCAAUAUUACGCAAA	-3.1 ± 0.3	-2.7 ± 0.32
AAGGAGCAAUAUUACGCACA		-1.89 ± 0.47
AAGGAGCAAUAUUACGCCGU	-1.14 ± 0.27	-1.16 ± 0.37

Sequence	self-splicing fitness (ln) (30 °C)	self-splicing fitness (ln) (37 °C)
AAGGAGCAAUAUUACGCGAA	-1.94 ± 0.22	-1.39 ± 0.23
AAGGAGCAAUAUUACGCGCC	-2.85 ± 0.24	-1.19 ± 0.17
AAGGAGCAAUAUUACGCGUC	-2.96 ± 0.37	
AAGGAGCAAUAUUACGCUAA	-2.97 ± 0.23	-1.51 ± 0.2
AAGGAGCAAUAUUACGGCAA	-2.54 ± 0.39	
AAGGAGCAAUAUUACGGCAU	-2.77 ± 0.18	-2.05 ± 0.23
AAGGAGCAAUAUUACGGCCU	-1.62 ± 0.12	-0.486 ± 0.12
AAGGAGCAAUAUUACGGCGC	-2 ± 0.27	-2.34 ± 0.48
AAGGAGCAAUAUUACGGGAA	-2.09 ± 0.2	-3.29 ± 0.24
AAGGAGCAAUAUUACGGUGG	-3.21 ± 0.15	-2.45 ± 0.27
AAGGAGCAAUAUUACGUACC	-3.01 ± 0.33	-3.19 ± 0.41
AAGGAGCAAUAUUACGUAGA	-3.27 ± 0.26	-1.46 ± 0.18
AAGGAGCAAUAUUACGUAUU	-2.95 ± 0.12	-2.34 ± 0.15
AAGUAGCAAUAUUACGAAGU	-3.02 ± 0.2	-1.9 ± 0.18
AAGUAGCAAUAUUACGAGCC	-2.87 ± 0.22	-1.34 ± 0.25
AAGUAGCAAUAUUACGCACU	-0.686 ± 0.095	-0.854 ± 0.14
AAGUAGCAAUAUUACGCAGA	-4.11 ± 0.24	-1.54 ± 0.1
AAGUAGCAAUAUUACGCAGU		-1.76 ± 0.19
AAGUAGCAAUAUUACGCCGC	-3.12 ± 0.38	
AAGUAGCAAUAUUACGCCUA	-0.227 ± 0.11	-0.477 ± 0.12
AAGUAGCAAUAUUACGCCUG	-0.259 ± 0.14	-0.00805 ± 0.14
AAGUAGCAAUAUUACGCGCC	-0.381 ± 0.2	-0.0421 ± 0.23
AAGUAGCAAUAUUACGCGGU	-2.47 ± 0.31	-2.59 ± 0.39
AAGUAGCAAUAUUACGCGUG	-0.856 ± 0.067	-0.191 ± 0.092
AAGUAGCAAUAUUACGCUAU	-4.06 ± 0.35	-1.9 ± 0.17
